# Measured values as given in patent publication US20260097113A1 (Pfizer, published 2026).
# T1: RSV F protein of subtype A comprising a polypeptide of SEQ ID NO: 1 and a polypeptide of SEQ ID NO: 2 (RSV subtype A, UniProt P11209 137-513; P03420 26-109)
# T1 construct: Stabilized prefusion F trimer made of three F2-F1 heterodimers; Produced recombinantly in CHO cells; also called RSV A; RSVA
# T1 chain 1: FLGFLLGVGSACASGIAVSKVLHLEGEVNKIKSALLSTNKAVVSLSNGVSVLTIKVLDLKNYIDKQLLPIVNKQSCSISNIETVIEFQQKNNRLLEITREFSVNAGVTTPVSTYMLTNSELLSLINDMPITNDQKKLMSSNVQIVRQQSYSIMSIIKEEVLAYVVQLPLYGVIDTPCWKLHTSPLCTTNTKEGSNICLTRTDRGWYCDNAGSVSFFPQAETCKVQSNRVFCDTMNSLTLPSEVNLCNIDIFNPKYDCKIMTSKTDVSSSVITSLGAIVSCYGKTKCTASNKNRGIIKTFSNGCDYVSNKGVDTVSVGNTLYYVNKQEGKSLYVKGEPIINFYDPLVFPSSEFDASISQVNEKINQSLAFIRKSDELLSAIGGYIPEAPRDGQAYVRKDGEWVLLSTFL
# T1 chain 2: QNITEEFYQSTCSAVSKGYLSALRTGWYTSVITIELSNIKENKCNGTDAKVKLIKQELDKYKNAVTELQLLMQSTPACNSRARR
# Assays:
# [1] = target: RSV A + RSV B bivalent composition (RSV subtype A; RSV subtype B); test: AM14 Fab titration by SEC; High-Slow 1 cycle; 1 M 2-8°C (second value)
# [2] = target: RSV A + RSV B bivalent composition (RSV subtype A; RSV subtype B); test: AM14 Fab titration by SEC; composition of Table 14; pre-lyo composition
# [3] = target: RSV A + RSV B bivalent composition (RSV subtype A; RSV subtype B); test: AM14 Fab titration by SEC; Target cycle; 1 M 40°C (second value)
# [4] = target: RSV A + RSV B bivalent composition (RSV subtype A; RSV subtype B); test: AM14 Fab titration by SEC; composition of Table 17; Pre-lyo Prep 1, T0
# [5] = target: RSV A + RSV B bivalent composition (RSV subtype A; RSV subtype B); test: AM14 Fab titration by SEC; Target cycle; 1 M 25°C (second value)
# [6] = target: RSV A + RSV B bivalent composition (RSV subtype A; RSV subtype B); test: AM14 Fab titration by SEC; Target cycle; 3 M 2-8°C
# [7] = target: RSV A + RSV B bivalent composition (RSV subtype A; RSV subtype B); test: AM14 Fab titration by SEC; High-Slow 2 cycle; 3 M 40°C
# [8] = target: RSV A + RSV B bivalent composition (RSV subtype A; RSV subtype B); test: AM14 Fab titration by SEC; Low-Fast cycle; 3 M 2-8°C
# [9] = target: RSV A + RSV B bivalent composition (RSV subtype A; RSV subtype B); test: AM14 Fab titration by SEC; composition of Table 17; Pre-lyo Prep 2, T0
# [10] = target: RSV A + RSV B bivalent composition (RSV subtype A; RSV subtype B); test: AM14 Fab titration by SEC; Low-Fast cycle; 8 M 25°C
# [11] = target: RSV A + RSV B bivalent composition (RSV subtype A; RSV subtype B); test: AM14 Fab titration by SEC; High-Slow 1 cycle; 1 M 25°C
# [12] = target: T1, RSV F protein of subtype A comprising a …; test: AM14 ELISA; F10 (pH 7, 50 mM NaCl, 4.5% sucrose); T0
# [13] = target: T1, RSV F protein of subtype A comprising a …; test: AM14 ELISA; F5 (pH 6, 100 mM NaCl, 9.0% sucrose); 1 wk 5°C
# [14] = target: T1, RSV F protein of subtype A comprising a …; test: AM14 ELISA; F11 (pH 7, 50 mM NaCl, 9.0% sucrose); 1 wk 5°C
# [15] = target: T1, RSV F protein of subtype A comprising a …; test: AM14 ELISA; F6 (pH 7, 0 mM NaCl, 4.5% sucrose); 1 wk 25°C
# [16] = target: T1, RSV F protein of subtype A comprising a …; test: AM14 ELISA; F9 (pH 8, 50 mM NaCl, 4.5% sucrose); T0
# [17] = target: T1, RSV F protein of subtype A comprising a …; test: AM14 ELISA; F16 (pH 6, 0 mM NaCl, 0% sucrose); 1 wk 5°C
# [18] = target: T1, RSV F protein of subtype A comprising a …; test: AM14 ELISA; F19 (pH 7, 50 mM NaCl, 3% trehalose + 3% mannitol); 1 wk 25°C
# [19] = target: T1, RSV F protein of subtype A comprising a …; test: AM14 ELISA; F7 (pH 6, 100 mM NaCl, 0% sucrose); 1 wk 25°C
Molecule,Prefusion Content (%) [1] [%],Prefusion Content (%) [2] [%],Prefusion Content (%) [3] [%],Prefusion Content (%) [4] [%],Prefusion Content (%) [5] [%],Prefusion Content (%) [6] [%],Prefusion Content (%) [7] [%],Prefusion Content (%) [8] [%],Prefusion Content (%) [9] [%],Prefusion Content (%) [10] [%],Prefusion Content (%) [11] [%],"AM14 prefusion content (%), relative to standard [12] [%]","AM14 prefusion content (%), relative to standard [13] [%]","AM14 prefusion content (%), relative to standard [14] [%]","AM14 prefusion content (%), relative to standard [15] [%]","AM14 prefusion content (%), relative to standard [16] [%]","AM14 prefusion content (%), relative to standard [17] [%]","AM14 prefusion content (%), relative to standard [18] [%]","AM14 prefusion content (%), relative to standard [19] [%]"
AM14 Fab,44,77,66,85,65,69,59,56,81,76,51,–,–,–,–,–,–,–,–
"AM14 (trimeric prefusion specific antibody of the AM14 ELISA) (antibody, V domains shown, Antibody as used in the AM14 ELISA, detected with an HRP-labeled secondary antibody) VH: EVQLVESGGGVVQPGRSLRLSCAASGFSFSHYAMHWVRQAPGKGLEWVAVISYDGENTYYADSVKGRFSISRDNSKNTVSLQMNSLRPEDTALYYCARDRIVDDYYYYGMDVWGQGATVTVSS VL: DIQMTQSPSSLSASVGDRVTITCQASQDIKKYLNWYHQKPGKVPELLMHDASNLETGVPSRFSGRGSGTDFTLTISSLQPEDIGTYYCQQYDNLPPLTFGGGTKVEIKR",–,–,–,–,–,–,–,–,–,–,–,104,78,101,102,94,65,75,75
